Experimental data reported in patent US20200010519A1, “NUCLEASE FUSIONS FOR ENHANCING GENOME EDITING BY HOMOLOGY-DIRECTED TRANSGENE INTEGRATION” (INSTITUT NATIONAL DE LA SANTE ET DE LA RECHERCHE …, priority 2017, published 2020).

System: AAVS1 locus
Assay: HDI of GFP cDNA at AAVS1 locus, FACS analysis, HEK293 cells
Format: cell-based, human

Molecule	HDI of GFP cDNA (homology-directed insertion of the GFP donor)
HE2: Cas9 fused to HE2 (46-296 aa of CtIP; SEQ ID NO. 13), lacking the first 45 aa (protein, UniProt Q99708 46-296, looked up, fragment, fused to Cas9, Cas9 fused to HE2 (46-296 aa of CtIP; 13), lacking the first 45 aa) KQERILDAQRLEEFFTKNQQLREQQKVLHETIKVLEDRLRAGLCDRCAVTEEHMRKKQQEFENIRQQNLKLITELMNERNTLQEENKKLSEQLQQKIENDQQHQAAELECEEDVIPDSPITAFSFSGVNRLRRKENPHVRYIEQTHTKLEHSVCANEMRKVSKSSTHPQHNPNENEILVADTYDQSQSPMAKAHGTSSYTPDKSSFNLATVVAETLGLGVQEESETQGPMSPLGDELYHCLEGNHKKQPFE	HE1 was the only fragment shown to significantly stimulate
HE3: Cas9 fused to HE3 (166-296 aa of CtIP; SEQ ID NO. 14) containing the 3 CDK phosphorylation sites (protein, UniProt Q99708 166-296, looked up, fragment, fused to Cas9, Cas9 fused to HE3 (166-296 aa of CtIP; 14) containing the 3 CDK phosphorylation sites) TAFSFSGVNRLRRKENPHVRYIEQTHTKLEHSVCANEMRKVSKSSTHPQHNPNENEILVADTYDQSQSPMAKAHGTSSYTPDKSSFNLATVVAETLGLGVQEESETQGPMSPLGDELYHCLEGNHKKQPFE	HE1 was the only fragment shown to significantly stimulate
